This experiment addresses IL-17 receptor like polypeptide on human B-lymphoblast cell line GM3104A (human) (UniProt Q9NRM6). In words: cell-based or functional assay.

Chain of recombinant human IL-17E-Fc fusion protein (chain): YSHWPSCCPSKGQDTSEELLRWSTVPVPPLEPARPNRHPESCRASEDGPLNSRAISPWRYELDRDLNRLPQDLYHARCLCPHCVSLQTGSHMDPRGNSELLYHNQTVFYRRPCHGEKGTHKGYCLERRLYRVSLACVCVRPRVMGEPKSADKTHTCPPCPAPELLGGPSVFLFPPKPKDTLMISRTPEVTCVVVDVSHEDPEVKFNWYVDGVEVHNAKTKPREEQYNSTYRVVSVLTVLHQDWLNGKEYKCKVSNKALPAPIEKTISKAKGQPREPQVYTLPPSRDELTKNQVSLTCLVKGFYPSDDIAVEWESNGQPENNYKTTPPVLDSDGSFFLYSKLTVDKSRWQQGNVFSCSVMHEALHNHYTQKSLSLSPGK

With “recombinant human IL-17E-Fc fusion protein”, the IL-1α (pg/ml) released by GM3104A cells came to 25 pg/mL, the IL-6 (pg/ml) released by GM3104A cells came to 362 pg/mL and the TNF-α (pg/ml) released by GM3104A cells is 460 pg/mL.
